These results are taken from PMC8752837, “Structural basis of BAK activation in mitochondrial apoptosis initiation” (Nature Communications, 2022).

Like-named read-outs stand apart in the source and are kept apart here.

The target in assay [1] is tevBAK (residues 22–186) (human) (UniProt Q16611). The assay is described as follows: ITC; 250 or 500 µM BID BH3 peptide injected into 20 or 50 µM tevBAK; 25 °C; 20 mM HEPES, 100 mM NaCl, 1 mM TCEP; single site binding model. (In general: Isothermal titration calorimetry measures the heat released or taken up as one component is titrated into another.)
Assay [2] addresses T1, Human BAK-∆TM-His6 (human).
T1 sequence (Q16611 whole entry, looked up): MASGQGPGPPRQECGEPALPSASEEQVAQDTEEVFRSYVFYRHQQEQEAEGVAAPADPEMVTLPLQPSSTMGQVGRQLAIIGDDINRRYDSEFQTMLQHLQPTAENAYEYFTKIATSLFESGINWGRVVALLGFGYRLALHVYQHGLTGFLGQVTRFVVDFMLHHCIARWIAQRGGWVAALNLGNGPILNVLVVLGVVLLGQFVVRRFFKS
The assay is described as follows: SPR; MEAS-BAK-His6 captured (~500 RU) on Ni2+-charged NTA HisCap chip, peptides injected; 20 °C; 20 mM HEPES pH 8.0, 200 mM NaCl, 1 mM TCEP, 0.01% Tween20; 1:1 interaction model. On the technique in general: In SPR one partner is held on a chip, and binding of the other changes the refractive index at the surface.

Assay [3] addresses T2, MEAS-BAK-His6 (C-terminus truncated recombinant human BAK containing C-terminal 6x histidine tag) (human) (UniProt Q16611).
T2 sequence: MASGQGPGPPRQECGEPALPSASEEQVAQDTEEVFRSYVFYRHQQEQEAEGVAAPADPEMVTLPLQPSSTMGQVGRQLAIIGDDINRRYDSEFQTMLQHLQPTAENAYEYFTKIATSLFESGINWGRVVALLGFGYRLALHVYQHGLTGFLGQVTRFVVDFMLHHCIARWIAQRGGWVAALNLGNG
The assay is described as follows: SPR; MEAS-BAK-His6 captured (~500 RU) on Ni-NTA HisCap chip, peptides injected; 20 °C; 20 mM HEPES pH 8.0, 200 mM NaCl, 1 mM TCEP, 0.01% Tween20; 1:1 interaction model.

The target in assay [4] is T2, MEAS-BAK-His6 (C-terminus truncated recombinant human BAK containing C-terminal 6x histidine tag) (human). The assay is described as above. The source holds these as a separate data set.
Assay [5] shares this target.
A further assay addresses GST-BAK (human). The assay is described as follows: fluorescence polarisation; competitive: displacement of 10 nM BID BH3 SAHB-F from 1 µM GST-BAK by peptides at 500-0.2 µM; 50 mM Tris-HCl pH 7.5, 50 mM KCl, 0.1 mg/mL BSA, 2 mM DTT, 0.005% Tween-20; 60 min at RT. (In general: Polarisation of emitted light reports the rotation of a fluorescent probe.)

As for M(3)W(5) BID-like BH3 peptide, the fold higher affinity than WT BID BH3 in assay [1] and in assay [2] was 30 fold in each case.
The Kd is a measure of binding affinity in units of concentration. For orientation: koff means the rate constant with which the complex falls apart. By kon is commonly meant the rate constant with which the complex forms. With W(3)W(5) BID BH3 peptide, in assay [3], the Kd was found to be 0.336 µM, the off-rate constant (koff) was determined as 0.0241 s⁻¹ and the on-rate constant (kon) amounted to 71900 M⁻¹ s⁻¹. Also, in assay [4], the kon turned out to be 79100 M⁻¹ s⁻¹.
Consider WT BID BH3 peptide, for which the Supplementary Table 1: liposome permeabilization EC50 (peptide dose against AUC, 50 nM BAK; data of Supplementary Figure 7c) in assay [5] came out at 0.059 µM. Also, in assay [3], the Kd amounted to 62.3 µM, the koff was 0.261 s⁻¹ and the kon was 4190 M⁻¹ s⁻¹.
What is called IC50 is the concentration at which inhibition is half-maximal. A high value points to lower potency. For the substance Y(3) BID BH3 peptide, the IC50 with GST-BAK (human) was 6.2 µM.
Y(4) BID BH3 peptide had an IC50 with GST-BAK (human) of 6.9 µM.
